From the RNAGym collection of RNA variant scans (doi:10.7554/elife.80360)

B1: Hairpin Ribozyme (parent)
chain: GUCCUCUUUCACGUGCGCGUGAAAGAGAGAAGUGAACCAGAGAAACACACGUUGUGGUAUAUUACCUGGUA

Variants of: B1
Test: self-cleavage, relative activity (ratio to wild type); higher = more cleavage; co-transcriptional

Going from GUCCUCUUUCACGUGCGCGUGAAAGAGAAAAGUGAACCAGAGCAACACACGUUGUGGUAUAUUACCUGGUA to GUCCUCUUUCACGUGCGCGUGAAAGAGACACGUGAACCAGAGAAACACACGUUGUGGUAUAUUACCUGGUA, the self-cleavage falls from 0.215 to 0.17.

First: GUCCUCUUUCACGUGCGCGUGAAAGAGUGAACUGAACCAGAGAAACACACGUUGUGGUAUAUUACCUGGUA
Second: GUCCUCUUUCACGUGCGCGUGAAAGAGUGAAAUGAACCAGAGAAACACACGUUGUGGUAUAUUACCUGGUA
The self-cleavage of the first is lower: 0.175 for the first, 0.234 for the second.

Compared with GUCCUCUUUCACGUGCGCGUGAAAGAGUGAAGUGAACCAGAUAAACACACGUUGUGGUAUAUUACCUGGUA, GUCCUCUUUCACGUGCGCGUGAAAGAGUGAAGUGAACCAGACAAACACACGUUGUGGUAUAUUACCUGGUA is lower in self-cleavage: 0.218 for the first, 0.0977 for the second.

Going from GUCCUCUUUCACGUGCGCGUGAAAGAGAAAAGUGAACCAGAGAAACACACGUUGUCGUAUAUUACCUGGUA to GUCCUCUUUCACGUGCGCGUGAAAGAGUGAAGUGAACUAGAGAAACACACGUUGUGGUAUAUUACCUGGUA, the self-cleavage rises from 0.166 to 0.343.

First: GUCCUCUUUCACGUGCGCGUGAAAGAGAAAAGUGAACCAGAGAAACACACGUUGUGAUAUAUUACCUGGUA
Second: GUCCUCUUUCACGUGCGCGUGAAAGAGAAAAGUGAACCAGAGAAACACACGUUGUGUUAUAUUACCUGGUA
The self-cleavage of the first is higher: 0.141 for the first, 0.0366 for the second.

Going from GUCCUCUUUCACGUGCGCGUGAAAGAGAAAAGUUAACCAGAGAAACACACGUUGUGGUAUAUUACCUGGUA to GUCCUCUUUCACGUGCGCGUGAAAGAGAAAAGUGAACCAGAGAUACACACGUUGUGGUAUAUUACCUGGUA, the self-cleavage rises from 0.131 to 0.226.

Going from GUCCUCUUUCACGUGCGCGUGAAAGAGUGAAGUGAACCAGAGAAACACACGUUGUGGUAUAUUACCUGGCA to GUCCUCUUUCACGUGCGCGUGAAAGAGUGAAGUGAACCAGAGAAACACACGUGGUGGUAUAUUACCUGGUA, the self-cleavage rises from 0.394 to 0.432.

Compared with GUCCUCUUUCACGUGCGCGUGAAAGAGUGAAGUGAACCAGAGAAAUACACGUUGUGGUAUAUUACCUGGUA, GUCCUCUUUCACGUGCGCGUGAAAGAGUGAAGUGAACCAGAGAAAGACACGUUGUGGUAUAUUACCUGGUA is higher in self-cleavage: 0.046 for the first, 0.109 for the second.

Compared with GUCCUCUUUCACGUGCGCGUGAAAGAGUGAAGGGAACCAGAGAAACACACGUUGUGGUAUAUUACCUGGUA, GUCCUCUUUCACGUGCGCGUGAAAGAGUGAAGUGAAUCAGAGAAACACACGUUGUGGUAUAUUACCUGGUA is higher in self-cleavage: 0.104 for the first, 0.376 for the second.

First: GUCCUCUUUCACGUGCGCGUGAAAGAGUGAAGUGAAGCAGAGAAACACACGUUGUGGUAUAUUACCUGGUA
Second: GUCCUCUUUCACGUGCGCGUGAAAGAGAAAAGUGAACCAGUGAAACACACGUUGUGGUAUAUUACCUGGUA
The self-cleavage of the first is higher: 0.193 for the first, 0.156 for the second.

First: GUCCUCUUUCACGUGCGCGUGAAAGAGAAAAGUGAACCAGAGAAGCACACGUUGUGGUAUAUUACCUGGUA
Second: GUCCUCUUUCACGUGCGCGUGAAAGAGAAAAGUGAACCCGAGAAACACACGUUGUGGUAUAUUACCUGGUA
The self-cleavage of the first is lower: 0.105 for the first, 0.108 for the second.

Going from GUCCUCUUUCACGUGCGCGUGAAAGAGAAAAGUGAACCGGAGAAACACACGUUGUGGUAUAUUACCUGGUA to GUCCUCUUUCACGUGCGCGUGAAAGAGAAAAGUGAACCAGAGAAACACACGUUGCGGUAUAUUACCUGGUA, the self-cleavage rises from 0.128 to 0.163.

Compared with GUCCUCUUUCACGUGCGCGUGAAAGAGAAUAGUGAACCAGAGAAACACACGUUGUGGUAUAUUACCUGGUA, GUCCUCUUUCACGUGCGCGUGAAAGAGAACAGUGAACCAGAGAAACACACGUUGUGGUAUAUUACCUGGUA is higher in self-cleavage: 0.0939 for the first, 0.115 for the second.

First: GUCCUCUUUCACGUGCGCGUGAAAGAGAAAAGUGAGCCAGAGAAACACACGUUGUGGUAUAUUACCUGGUA
Second: GUCCUCUUUCACGUGCGCGUGAAAGAGAAAAGUGGACCAGAGAAACACACGUUGUGGUAUAUUACCUGGUA
The self-cleavage of the first is lower: 0.135 for the first, 0.147 for the second.

Compared with GUCCUCUUUCACGUGCGCGUGAAAGAGAAAAGUGCACCAGAGAAACACACGUUGUGGUAUAUUACCUGGUA, GUCCUCUUUCACGUGCGCGUGAAAGAGUGAAGUGAACCAGAGAAACACACGUUGUGGUAUAUUACCUGGUC is higher in self-cleavage: 0.187 for the first, 1.1 for the second.

First: GUCCUCUUUCACGUGCGCGUGAAAGAGUGAAGUGAACCAGAGAAACACACGUUGUGGUAUAUUACCUGGUU
Second: GUCCUCUUUCACGUGCGCGUGAAAGAGUGAAGUGAACCAGAGAAACACACGUUGUGGGAUAUUACCUGGUA
The self-cleavage of the first is lower: 0.371 for the first, 0.416 for the second.

Going from GUCCUCUUUCACGUGCGCGUGAAAGAGAAAAGUGAACCAGAGAAACACACCUUGUGGUAUAUUACCUGGUA to GUCCUCUUUCACGUGCGCGUGAAAGAGAAAAGUGAACCAGAGAAACACACGUUGUGGUUUAUUACCUGGUA, the self-cleavage falls from 0.216 to 0.162.

Compared with GUCCUCUUUCACGUGCGCGUGAAAGAGUGAAGUGAACCAAAGAAACACACGUUGUGGUAUAUUACCUGGUA, GUCCUCUUUCACGUGCGCGUGAAAGAGUGAAGUGAACCAGAGAAACACACGUUGUGGUACAUUACCUGGUA is higher in self-cleavage: 0.175 for the first, 0.871 for the second.

First: GUCCUCUUUCACGUGCGCGUGAAAGAGACAAGUGAACCGGAGAAACACACGUUGUGGUAUAUUACCUGGUA
Second: GUCCUCUUUCACGUGCGCGUGAAAGAGACAAGUGAACCCGAGAAACACACGUUGUGGUAUAUUACCUGGUA
The self-cleavage of the first is lower: 0.0911 for the first, 0.106 for the second.
